Measured values as given in patent US20220185894A1 (F STAR THERAPEUTICS, published 2022).

How the values were obtained:
[1] = biological target: T1, murine PD-L1 expressed on cells (mouse, UniProt Q9EP73 19-290); assay: flow cytometry on HEK cells expressing murine PD-L1
T1 construct: also called murine PD-L1 HEK
Description: The affinity of the mAb² (all containing the LALA mutations) binding to cell expressed murine LAG-3 or murine PD-L1 was determined using flow cytometry. HEK cells expressing murine LAG-3 or murine PD-L1 grown in DMEM (Life Technologies, 61965-026) containing 10% FBS (Life Technologies, 10270-1-6), 100 μg/ml Hygromycin B (Melford Laboratories Ltd, Z2475), 15 μg/ml Blasticidin (Melford Laboratories Ltd, B1105) and 1 μg/ml Doxycyclin (Sigma, D9891) were detached from tissue culture flasks using cell dissociation buffer (Life Technologies, 13151-014) and seeded in V-bottom 96-well plates (Costar, 3897) at 2×10⁵ cells/well. The plates were centrifuged at 1500 rpm for 3 min at 4° C. to pellet the cells. A dilution series of the mAb² (or control mAb) were incubated with the cells in a 60 μl volume for 1 h at 4° C. The plates were washed and secondary antibody (Anti-human Fc-488, Jackson ImmunoResearch, 109-546-098 for mAb² or Anti-Rat IgG (H+L), Alexa Fluor 488, ThermoFisher, A-11006 for anti-LAG-3 control, C9B7W) was diluted 1:1000 in PBS and 50 μl was added to the cells for 30 min at 4° C. (plates were kept in the dark). […] The plates were read using Canto II flow cytometer (BD Bioscience). Dead cells were excluded and the fluorescence in the FITC channel (488 nm/530/30) was measured. […] The plates were read on a BD FACSCanto II cytometer (BD Biosciences) and the data analysed using FlowJo.

[2] = biological target: T2, mouse LAG-3 expressed on cells (mouse, UniProt Q61790 24-521); assay: flow cytometry on HEK cells expressing murine LAG-3
T2 construct: also called mLAG-3; murine LAG-3 HEK
T2 sequence: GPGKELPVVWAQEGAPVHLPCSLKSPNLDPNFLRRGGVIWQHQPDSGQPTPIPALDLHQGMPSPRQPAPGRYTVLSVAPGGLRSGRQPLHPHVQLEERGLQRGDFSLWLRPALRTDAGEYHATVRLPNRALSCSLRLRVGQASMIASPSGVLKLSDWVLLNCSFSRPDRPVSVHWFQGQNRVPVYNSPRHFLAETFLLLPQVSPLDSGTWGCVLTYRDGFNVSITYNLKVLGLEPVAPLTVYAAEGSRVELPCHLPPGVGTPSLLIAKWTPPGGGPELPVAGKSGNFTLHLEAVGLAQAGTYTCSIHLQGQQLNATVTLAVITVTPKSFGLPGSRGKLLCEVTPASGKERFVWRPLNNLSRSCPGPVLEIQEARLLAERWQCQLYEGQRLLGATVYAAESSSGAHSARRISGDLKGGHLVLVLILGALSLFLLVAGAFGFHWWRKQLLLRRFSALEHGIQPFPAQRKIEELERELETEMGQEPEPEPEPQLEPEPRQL
Description: The affinity of the mAb² (all containing the LALA mutations) binding to cell expressed murine LAG-3 or murine PD-L1 was determined using flow cytometry. HEK cells expressing murine LAG-3 or murine PD-L1 grown in DMEM (Life Technologies, 61965-026) containing 10% FBS (Life Technologies, 10270-1-6), 100 μg/ml Hygromycin B (Melford Laboratories Ltd, Z2475), 15 μg/ml Blasticidin (Melford Laboratories Ltd, B1105) and 1 μg/ml Doxycyclin (Sigma, D9891) were detached from tissue culture flasks using cell dissociation buffer (Life Technologies, 13151-014) and seeded in V-bottom 96-well plates (Costar, 3897) at 2×10⁵ cells/well. The plates were centrifuged at 1500 rpm for 3 min at 4° C. to pellet the cells. A dilution series of the mAb² (or control mAb) were incubated with the cells in a 60 μl volume for 1 h at 4° C. The plates were washed and secondary antibody (Anti-human Fc-488, Jackson ImmunoResearch, 109-546-098 for mAb² or Anti-Rat IgG (H+L), Alexa Fluor 488, ThermoFisher, A-11006 for anti-LAG-3 control, C9B7W) was diluted 1:1000 in PBS and 50 μl was added to the cells for 30 min at 4° C. (plates were kept in the dark). The plates were washed then cells were resuspended in 50 μl FACS Cell Fix (BD Bioscience, 340181) for 15 minutes, then washed and resuspended in 100 μl PBS containing 1 μg/ml DAPI (Biotium, 40043). The plates were read using Canto II flow cytometer (BD Bioscience). Dead cells were excluded and the fluorescence in the FITC channel (488 nm/530/30) was measured. The data was fit using log (agonist) vs response in GraphPad Prism Software. The plates were read on a BD FACSCanto II cytometer (BD Biosciences) and the data analysed using FlowJo.

[3] = biological target: T2, mouse LAG-3 expressed on cells; assay: flow cytometry on HEK cells expressing mouse LAG-3
Description: HEK cells expressing mLAG-3 grown in DMEM (Life Technologies, 61965-026) containing 10% FBS (Life Technologies, 10270-1-6), 100 μg/ml Hygromycin B (Melford Laboratories Ltd, Z2475), 15 μg/ml Blasticidin (Melford Laboratories Ltd, B1105) and 1 μg/ml Doxycyclin (Sigma, D9891) were detached from tissue culture flasks using cell dissociation buffer (Life Technologies, 13151-014). Cells were collected by centrifuged at 1500 rpm for 3 min at 4° C. to pellet the cells and then resuspended in 1×DPBS then seeded in V-bottom 96-well plates (Costar, 3897) at 1.2×10⁵ cells/well in 30 μl. A 1:1 volume of a dilution series of the mAb² (or control mAb) was added and incubated with the cells for 1 h at 4° C. The plates were washed and secondary antibody (Anti-human Fc-488, Jackson ImmunoResearch, 109-546-098) was diluted 1:1000 in PBS and 60 μl was added to the cells for 30 min at 4° C. (plates were kept in the dark). The plates were then washed and the cells resuspended in 60 μl PBS containing 1 μg/ml DAPI (Biotium, 40043). The plates were read using Canto II flow cytometer (BD Bioscience). Dead cells were excluded and the fluorescence in the FITC channel (488 nm/530/30) was measured. The data was fitted using log (agonist) vs response in GraphPad Prism Software.

[4] = biological target: T3, mouse LAG-3 Fc (R&D Systems, 3328-L3-050) (mouse, UniProt Q61790 24-442); assay: SPR, Biacore 3000; mLAG-3 Fc immobilised, Fcab injected
T3 construct: Bought protein; also called mLAG-3 Fc; murine LAG-3Fc; not shown: Fc tag of the bought fusion protein
T3 sequence: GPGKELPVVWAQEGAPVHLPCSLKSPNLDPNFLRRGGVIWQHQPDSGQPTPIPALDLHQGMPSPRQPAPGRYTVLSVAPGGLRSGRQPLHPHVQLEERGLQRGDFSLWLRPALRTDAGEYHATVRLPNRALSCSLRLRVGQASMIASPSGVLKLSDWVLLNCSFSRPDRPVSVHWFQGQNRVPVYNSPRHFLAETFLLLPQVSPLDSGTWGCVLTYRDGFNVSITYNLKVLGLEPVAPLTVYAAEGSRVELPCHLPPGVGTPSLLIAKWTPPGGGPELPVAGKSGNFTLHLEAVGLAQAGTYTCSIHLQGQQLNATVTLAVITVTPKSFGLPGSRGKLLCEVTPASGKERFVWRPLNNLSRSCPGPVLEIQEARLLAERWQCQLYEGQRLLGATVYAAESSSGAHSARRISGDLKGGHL
Description: A Biacore 3000 (GE Healthcare) was used to measure the affinity of the surrogate Fcabs specific for mouse LAG-3 to mouse LAG-3. […] Fcabs were diluted in HBS-P buffer (GE Healthcare, BR-1003-68) and injected at various concentrations (fourfold dilutions from 100 nM) for 3 min at 20 μl/min and then allowed to dissociate in buffer for 12 min. The chip was regenerated by injection of 10 mM glycine pH 2.5 for 30 s at 30 μl/min. Data was double reference subtracted and analyzed using BIAevaluation 3.2 software to calculate kinetic constants.

[5] = biological target: T2, mouse LAG-3 expressed on cells; assay: flow cytometry on HEK cells expressing mouse LAG-3; remark: listed apart in the source
Description: The plates were centrifuged at 1500 rpm for 3 min at 4° C. to pellet the cells. […] (plates were kept in the dark). […] The plates were read using Canto II flow cytometer (BD Bioscience). Dead cells were excluded and the fluorescence in the FITC channel (488 nm/530/30) was measured. The data was fit using log (agonist) vs response in GraphPad Prism Software.

[6] = biological target: T3, mouse LAG-3 Fc (R&D Systems, …); assay: flow cytometry; inhibition of mouse LAG-3 Fc binding to MHC class II on A375 cells
Description: (§1) The plates were centrifuged at 1500 rpm for 3 min at 4° C. to pellet the cells. […] LAG-3/Fcab mix was added to the A375 cells and incubated for 1 h at 4° C. Cells were washed. Secondary antibody (Alexa Fluor 488 conjugated goat anti-human Fc F(ab′)₂, Jackson Immunoresearch, 109-546-098 or Goat anti-mouse IgG (H+L) 488 conjugate, Life Technologies, A-1101) was diluted 1:1000 in PBS and 100 μl was added to the cells for 30 min at 4° C. (plates were kept in the dark). Cells were washed once in PBS and resuspended in 100 μl PBS+1 μg/ml DAPI (Biotium, 40043). The plates were read on a BD FACSCanto II cytometer (BD Biosciences) and the data analysed using FlowJo software.

[7] = biological target: T4, recombinant Fc-tagged human LAG-3 (R&D Systems, 2319-L3-050) (human, UniProt P18627 23-450); assay: flow cytometry; inhibition of human LAG-3 Fc binding to MHC class II on A375 cells
T4 construct: Bought protein; also called LAG-3 Fc; human LAG-3-Fc; not shown: Fc tag of the bought fusion protein
T4 sequence: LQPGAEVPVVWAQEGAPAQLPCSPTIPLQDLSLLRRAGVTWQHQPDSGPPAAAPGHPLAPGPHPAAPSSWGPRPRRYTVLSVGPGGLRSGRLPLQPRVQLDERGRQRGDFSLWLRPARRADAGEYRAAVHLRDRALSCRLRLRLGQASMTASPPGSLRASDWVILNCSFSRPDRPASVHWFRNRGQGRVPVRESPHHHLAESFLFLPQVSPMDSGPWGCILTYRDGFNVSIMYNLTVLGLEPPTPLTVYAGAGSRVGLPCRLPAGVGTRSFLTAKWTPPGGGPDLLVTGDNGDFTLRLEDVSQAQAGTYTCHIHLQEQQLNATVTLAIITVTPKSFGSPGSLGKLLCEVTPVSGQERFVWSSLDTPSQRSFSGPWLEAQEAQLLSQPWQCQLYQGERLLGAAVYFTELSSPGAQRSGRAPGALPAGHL
Description: as §1

T1 sequence (Q9EP73 19-290 limits assumed): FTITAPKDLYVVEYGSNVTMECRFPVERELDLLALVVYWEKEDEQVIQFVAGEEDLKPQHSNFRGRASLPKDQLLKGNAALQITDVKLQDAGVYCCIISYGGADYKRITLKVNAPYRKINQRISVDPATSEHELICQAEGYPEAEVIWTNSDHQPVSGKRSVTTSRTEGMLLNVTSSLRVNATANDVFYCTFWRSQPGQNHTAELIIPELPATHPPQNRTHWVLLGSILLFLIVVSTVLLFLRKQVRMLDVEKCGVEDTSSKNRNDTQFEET

Binder | Kd [4] [nM] | EC50 [5] [nM] | IC50 [6] [nM] | IC50 [7] [nM] | further results
anti-mouse LAG-3/PD-L1 mAb2 FS18-7-108-35/S1 with LALA mutation (bispecific antibody, also called FS18-35/S1) heavy: not shown light: DIQMTQSPSSLSASVGDRVTITCRASQDVSTAVAWYQQKPGKAPKLLIYSASFLYSGVPSRFSGSGSGTDFTLTISSLQPEDFATYYCQQYLFTPPTFGQGTKVEIKRTVAAPSVFIFPPSDEQLKSGTASVVCLLNNFYPREAKVQWKVDNALQSGNSQESVTEQDSKDSTYSLSSTLTLSKADYEKHKVYACEVTHQGLSSPVTKSFNRGEC | – | – | – | – | EC50 [1]: 12.3 nM; EC50 [2]: 3.84 nM
anti-mouse LAG-3 Fcab FS18-7-108-29 (designed binder, Fcab (truncated hinge, CH2, CH3)) TCPPCPAPELLGGPSVFLFPPKPKDTLMISRTPEVTCVVVDVSHEDPEVKFNWYVDGVEVHNAKTKPREEQYNSTYRVVSVLTVLHQDWLNGKEYKCKVSNKALPAPIEKTISKAKGQPREPQVYTLPPSWDEPWGEDVSLTCLVKGFYPSDIVVEWESNGQPENNYKTTPPVLDSDGSFFLYSKLTVPFERWMWPDEFSCSVMHEALHNHYTQKSLSLSPG | 1.5 | 4.5 | 0.6 | – | EC50 [3]: 2.6 nM
anti-human LAG-3 Fcab FS18-7-33 (designed binder) TCPPCPAPELLGGPSVFLFPPKPKDTLMISRTPEVTCVVVDVSHEDPEVKFNWYVDGVEVHNAKTKPREEQYNSTYRVVSVLTVLHQDWLNGKEYKCKVSNKALPAPIEKTISKAKGQPREPQVYTLPPSWDEPWGEDVSLTCLVKGFYPSDIAVEWESNGQPEDNYKTTPPVLDSDGSFFLYSKLTVPYDRWVWPDEFSCSVMHEALHNHYTQKSLSLSPG | – | – | – | 2.6 | –
anti-human LAG-3 Fcab FS18-7-78 (designed binder) TCPPCPAPELLGGPSVFLFPPKPKDTLMISRTPEVTCVVVDVSHEDPEVKFNWYVDGVEVHNAKTKPREEQYNSTYRVVSVLTVLHQDWLNGKEYKCKVSNKALPAPIEKTISKAKGQPREPQVYTLPPSWDEPWGEDVSLTCLVKGFYPSDIAVEWESNGYKEENYKTTPPVLDSDGSFFLYSKLTVPYDRWVWPDEFSCSVMHEALHNHYTQKSLSLSPG | – | – | – | 2.4 | –
anti-mouse LAG-3 Fcab FS18-7-108-35 (designed binder, Fcab (truncated hinge, CH2, CH3)) TCPPCPAPELLGGPSVFLFPPKPKDTLMISRTPEVTCVVVDVSHEDPEVKFNWYVDGVEVHNAKTKPREEQYNSTYRVVSVLTVLHQDWLNGKEYKCKVSNKALPAPIEKTISKAKGQPREPQVYTLPPSWDEPWGEDVSLTCLVKGFYPSDISVEWESNGQPENNYKTTPPVLDSDGSFFLYSKLTVPFERWMWPDEFSCSVMHEALHNHYTQKSLSLSPG | 2.1 | 4.5 | 0.7 | – | –
